# Test results from patent US20030175730, “Multivalent RNA aptamers and their expression in multicellular organisms” (published 2003).
# T1: HSF (heat shock factor) (UniProt P22813 P22813:1-691)
# T1 sequence: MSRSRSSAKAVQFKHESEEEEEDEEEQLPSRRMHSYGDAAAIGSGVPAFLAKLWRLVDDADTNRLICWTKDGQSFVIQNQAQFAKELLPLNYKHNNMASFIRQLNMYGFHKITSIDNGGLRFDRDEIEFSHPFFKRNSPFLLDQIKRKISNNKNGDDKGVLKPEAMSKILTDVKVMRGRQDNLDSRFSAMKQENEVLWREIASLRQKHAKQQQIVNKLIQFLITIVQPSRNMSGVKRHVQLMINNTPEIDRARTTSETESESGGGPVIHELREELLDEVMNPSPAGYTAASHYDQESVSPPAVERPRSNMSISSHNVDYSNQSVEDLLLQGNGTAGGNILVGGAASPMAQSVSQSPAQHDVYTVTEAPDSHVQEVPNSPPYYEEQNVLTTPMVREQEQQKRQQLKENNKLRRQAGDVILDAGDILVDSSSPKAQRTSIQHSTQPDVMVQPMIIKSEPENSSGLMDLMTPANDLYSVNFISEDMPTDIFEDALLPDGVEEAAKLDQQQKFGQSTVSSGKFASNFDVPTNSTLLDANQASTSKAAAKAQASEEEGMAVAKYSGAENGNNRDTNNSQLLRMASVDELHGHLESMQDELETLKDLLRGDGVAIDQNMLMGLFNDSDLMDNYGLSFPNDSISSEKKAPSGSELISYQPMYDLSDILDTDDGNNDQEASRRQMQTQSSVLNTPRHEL
# T2: RBP1 (SR protein) (UniProt Q02427 Q02427:1-144)
# T2 sequence: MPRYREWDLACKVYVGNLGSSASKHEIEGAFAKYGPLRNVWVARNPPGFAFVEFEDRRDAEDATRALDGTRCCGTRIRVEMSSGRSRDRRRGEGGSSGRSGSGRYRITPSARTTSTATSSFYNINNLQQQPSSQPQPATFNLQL
# B1: BBS #8 (ssRNA)
# RNA: GGGAGAAUUCAACUGCCAUCUAGGCUGGUCAACCAGGCGACCGCCACCCGCGCGCGCAAUACCUAGUACUACAAGCUUCUGGACUCGGU
# B2: mature pentavalent BBS(5) aptamer (ssRNA)
# RNA: GCGGCCGCCUCCGCGGCCGCCUGAUGAGUCCGUGAGGACGAAACAUGCAUGUCGAGAGUACGAUCAACCAGGCGACAGUACUCUCGACGAUCAACCAGGCGACAGUGGCUGGUCAACCAGGCGACCGCCACUGCAGGGUAACGGUCAACCAGGCGACCGUUACCCGGACGGUCAACCAGGCGACCGUUGACUUCGGUCAGUCGAGAUGCAUGUC
# B3: BBS #8 ScaI-trimmed (ssRNA)
# RNA: GGGAGAAUUCAACUGCCAUCUAGGCUGGUCAACCAGGCGACCGCCACCCGCGCGCGCAAUACCUAGU
# B4: BBS #14 ScaI-trimmed (ssRNA)
# RNA: GGGAGAAUUCAACUGCCAUCUAGGCAGGGUAACGAUCAACCUGGCGACAGCUGCCCUGCCGUCCAAGU
# B5: BBS #23 (ssRNA)
# RNA: GGGAGAAUUCAACUGCCAUCUAGGCCCAACUGCUAAGAAGCAUCCUGUACGAUCAACCCGGCGACAGUACUACAAGCUUCUGGACUCGGU
# Assays:
# [1] = biological target: B52 RRM1+RRM2 (R12) (Drosophila melanogaster, UniProt P26686 P26686:4-188); assay: EMSA; affinity comparable to baculovirus B52; also UV-crosslinked; conditions: tags: 35S-Met, reticulocyte lysate; hairpin
# Description: (§1) Gel shifts were performed at 4° C. The binding reaction mixtures were set at 4° C. for 5-10 minutes before being loaded onto a 2.5% agarose gel in ¼ TBE buffer. The avidity of the pentavalent RNA aptamer to B52 was examined on longer agarose gels (25 cm) to improve the resolution of RNA bands. The affinity of the RNA for the in vitro translated polypeptides was estimated by comparing the intensity of the bands representing the complex on the agarose gel and that of the corresponding polypeptides run on SDS-PAGE. To crosslink proteins to RNA, the binding reaction mixtures were irradiated for 20 minutes from 5 cm directly above by inverting a short-wavelength UV trans-illuminator. The products of crosslinking were analyzed using standard SDS-PAGE.
# (§2) BBS RNAs were selected for their ability to bind full length B52 protein. It is possible that B52 binds RNA through either one or the other RRMs, the SR domain, or a combination of these domains. To identify the specific RNA-binding site on B52, a set of ³⁵S-methionine labeled B52 deletion constructs were prepared by in vitro translation and then tested for their ability to bind the selected BBS #8 RNA in two different assays (FIG. 6A). […]
# (§3) To confirm the requirements of both RRMs for binding, these binding reactions were repeated and the reaction mixtures were subjected to UV irradiation. The UV-crosslinked species were then analyzed on SDS-PAGE. […]
# [2] = biological target: B52 full length (F) (Drosophila melanogaster, UniProt P26686 P26686:1-350); assay: EMSA; 100 nM RNA; affinity comparable to baculovirus B52; conditions: tags: 35S-Met, reticulocyte lysate; hairpin
# Description: (§4) All binding assays were performed in 20 μl volume in 1× binding buffer described above. A typical binding assay using labeled RNA contains about 20 finole of ³²P-labeled RNA probe and differing amounts (1-10 pmole) of B52 protein. A typical binding assay using the truncated versions of B52 contains 1 μl of the ³⁵S-labeled translation reaction mixture with 2 pmoles of unlabeled RNA transcript (the final concentration of RNAs in this reaction was 100 nM and concentration of the labeled B52 proteins was much lower). The reactions were allowed to equilibrate for 15-20 minutes at ambient temperature before being subjected to filter binding, gel shift, or UV crosslinking.
# (§5) BBS RNAs were selected for their ability to bind full length B52 protein. It is possible that B52 binds RNA through either one or the other RRMs, the SR domain, or a combination of these domains. To identify the specific RNA-binding site on B52, a set of ³⁵S-methionine labeled B52 deletion constructs were prepared by in vitro translation and then tested for their ability to bind the selected BBS #8 RNA in two different assays (FIG. 6A). These polypeptides also serve as a second source of target proteins in binding assays to confirm the specificity of binding to the selected BBS RNA.
# [3] = biological target: B52 RRM2+SR domain (R2S) (Drosophila melanogaster, UniProt P26686 P26686:115-350); assay: EMSA; 100 nM RNA, no discrete band; conditions: tags: 35S-Met, reticulocyte lysate; hairpin
# Description: as §1, §5
# [4] = biological target: B52 SR domain (S) (Drosophila melanogaster, UniProt P26686 P26686:189-350); assay: EMSA; 100 nM RNA, no discrete band; conditions: tags: 35S-Met, reticulocyte lysate; hairpin
# Description: as §1, §5
# [5] = biological target: B52 RRM1 (R1) (Drosophila melanogaster, UniProt P26686 P26686:4-74); assay: EMSA; no band; not UV-crosslinked; not complemented by R2S in trans; conditions: tags: 35S-Met, reticulocyte lysate; hairpin
# Description: as §1, §2, §3
# [6] = biological target: T1, HSF (heat shock factor); assay: no measurable affinity for BBS RNAs; individual BBS and method not specified; conditions: hairpin
# [7] = biological target: T2, RBP1 (SR protein); assay: as above; conditions: hairpin
# [8] = biological target: T3, B52 (SRp55) full length (Drosophila melanogaster, UniProt P26686 P26686:1-350); assay: EMSA; pentavalent vs monovalent; single-unit ribozyme-cleaved transcript tested in FIG. 9A; conditions: tags: baculovirus/Sf9 expressed, SR protein purification; multivalent, five BBS hairpins closed by S35 stem
# Description: as §1
# Fragment C, which contains no binding site, served as an internal loading control in a band shift assay to assess the avidity of the pentavalent construct. During the transcription reaction, the extent of self-cleavage reached about 90% (FIG. 9A, Lane 1). […] The multivalent RNA aptamers bound B52 10-fold more avidly than the individual monovalent RNA aptamers, as shown here compared to the strong-binding primary aptamer BBS #14 (Lanes 2-4 vs. Lanes 6-8, FIG. 9A). […]
# [9] = biological target: T3, B52 (SRp55) full length; assay: EMSA; full binding activity; conditions: tags: baculovirus/Sf9 expressed, SR protein purification; label: 32P-UTP; hairpin with unfolded 3' tail
# Description: as §4
# (§6) To determine the sequence/structure requirements for binding by B52, deletion and substitution mutations, and antisense constructs of BBS were designed in light of the shared sequence motif and predicted secondary structures (FIG. 4). These short RNA transcripts were produced by in vitro transcription of synthetic templates, and their affinity to B52 was assayed by band shift.
# [10] = biological target: T3, B52 (SRp55) full length; assay: EMSA; fully active; conditions: tags: baculovirus/Sf9 expressed, SR protein purification; label: 32P-UTP; hairpin
# Description: as §4, §6
# [11] = biological target: T3, B52 (SRp55) full length; assay: EMSA; antisense does not bind; conditions: tags: baculovirus/Sf9 expressed, SR protein purification, label: 32P-UTP
# Description: as §4, §6
# [12] = biological target: T3, B52 (SRp55) full length; assay: EMSA; consensus trapped in duplex loses binding; conditions: tags: baculovirus/Sf9 expressed, SR protein purification; label: 32P-UTP; hairpin, BBS consensus paired with its antisense via UUCG tetraloop
# Description: as §4, §6
# [13] = biological target: T3, B52 (SRp55) full length; assay: EMSA; strong binder; both conserved flanking Gs; conditions: tags: baculovirus/Sf9 expressed, SR protein purification; label: 32P-UTP; hairpin
# Description: as §4, §6
# [14] = biological target: T3, B52 (SRp55) full length; assay: EMSA; binding not compromised; conditions: tags: baculovirus/Sf9 expressed, SR protein purification; label: 32P-UTP; hairpin
# Description: as §4, §6
# [15] = biological target: T3, B52 (SRp55) full length; assay: EMSA; 1:1; 50 mM Tris pH 7.6, 200 mM KOAc, 5 mM MgCl2, excess tRNA, gel 4 C; conditions: tags: baculovirus/Sf9 expressed, SR protein purification; label: 32P-UTP; hairpin
# Description: as §4
# (§7) When individual RNA's transcribed from cloned sequences were tested by filter binding assay the BBS RNA's were all able to bind B52 to generate signals that were 20 times the background produced by RNA's from the unselected pools. […] After cloning the selected sequences, RNA transcripts without most of the 3′ constant region were made by cutting the template with the restriction endonuclease Scal. […] The band shift assay was first performed with these sequences. Two sequences randomly picked from the original unselected pool were used as controls. Increasing amounts of B52 were added to ³²P-labeled RNA probes, which contain the 5′ constant region, in the presence of a large excess of tRNA. […]
# [16] = biological target: T3, B52 (SRp55) full length; assay: filter; signal 20x background of unselected pool; conditions: tags: baculovirus/Sf9 expressed, SR protein purification; hairpin
# Description: as §4, §7
# [17] = biological target: T3, B52 (SRp55) full length; assay: EMSA; binds as well as BBS-I; conditions: tags: baculovirus/Sf9 expressed, SR protein purification; label: 32P-UTP; hairpin with internal loop
# Description: as §4, §6
# T3 sequence (P26686 other isoform, or with tags, fused parts or gaps): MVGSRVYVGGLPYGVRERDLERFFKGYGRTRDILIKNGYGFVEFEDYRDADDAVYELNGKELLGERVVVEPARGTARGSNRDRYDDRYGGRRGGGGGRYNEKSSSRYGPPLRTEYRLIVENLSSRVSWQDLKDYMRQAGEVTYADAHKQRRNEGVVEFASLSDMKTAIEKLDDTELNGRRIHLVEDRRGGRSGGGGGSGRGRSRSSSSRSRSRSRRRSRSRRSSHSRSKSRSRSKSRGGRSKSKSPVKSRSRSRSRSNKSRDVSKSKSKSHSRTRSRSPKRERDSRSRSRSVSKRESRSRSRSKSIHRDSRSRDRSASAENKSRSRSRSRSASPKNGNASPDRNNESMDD
# Sequence of B52 SR domain (S) (P26686 other isoform, or with tags, fused parts or gaps): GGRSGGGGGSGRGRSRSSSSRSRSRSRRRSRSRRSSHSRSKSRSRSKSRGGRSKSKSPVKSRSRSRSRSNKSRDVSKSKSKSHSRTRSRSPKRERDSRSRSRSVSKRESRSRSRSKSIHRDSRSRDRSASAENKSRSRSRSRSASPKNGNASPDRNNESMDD
# Sequence of B52 RRM1+RRM2 (R12) (P26686 other isoform, or with tags, fused parts or gaps): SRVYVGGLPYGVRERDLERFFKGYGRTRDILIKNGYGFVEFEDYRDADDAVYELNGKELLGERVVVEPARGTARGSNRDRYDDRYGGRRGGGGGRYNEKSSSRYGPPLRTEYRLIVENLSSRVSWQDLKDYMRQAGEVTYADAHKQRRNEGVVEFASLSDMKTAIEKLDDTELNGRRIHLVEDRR
# Sequence of B52 RRM1 (R1) (P26686 4-74, one chain of several): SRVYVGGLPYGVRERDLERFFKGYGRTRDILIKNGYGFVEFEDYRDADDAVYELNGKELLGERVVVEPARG
# Sequence of B52 RRM2+SR domain (R2S) (P26686 other isoform, or with tags, fused parts or gaps): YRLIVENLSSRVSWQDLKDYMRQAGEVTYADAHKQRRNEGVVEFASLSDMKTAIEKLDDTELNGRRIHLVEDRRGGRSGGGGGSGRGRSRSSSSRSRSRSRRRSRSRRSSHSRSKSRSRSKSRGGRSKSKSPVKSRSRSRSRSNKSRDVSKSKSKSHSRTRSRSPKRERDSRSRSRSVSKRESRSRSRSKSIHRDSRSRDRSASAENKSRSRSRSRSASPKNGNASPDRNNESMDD
binder,measurement,setting,value
B1,binding result,[1],binds
same,binding result,[2],binds
same,binding result,[3],no binding
same,binding result,[4],no binding
same,binding result,[5],no binding
same,binding result,[6],no binding
same,binding result,[7],no binding
B2,binding signal,[8],10 fold more avid than BBS #14
GGCUGGUCAACCAGGCGACCGCCACCCGCGCGC (ssRNA) [BBS-I/Long],binding signal,[9],1 fold of BBS #8
GGCUGGUCAACCAGGCGACCGCC (ssRNA) [BBS-I],binding signal,[10],1 fold of BBS #8
GGACUGUCGCCUGGUUGAUCGU (ssRNA) [AntiBBS-II],binding result,[11],no binding
GGUCGCCUGGUUGAUCUUCGGAUCAACCAGGCGACA (ssRNA) [UUCG/BBS],binding result,[12],no binding
GGACGGUCAACCAGGCGACCGU (ssRNA) [bbs-II/3'Stem],binding result,[13],binds
GGCGGUCAACCAGGCGACCGCC (ssRNA) [BBS-I/NoBulge],binding result,[14],binds
B3,Kd,[15],~20 nM
GGCGGUCGCCUGGUUGACCAGCC (ssRNA) [AntiBBS-I],binding result,[11]; hairpin,no binding
B4,Kd,[15],~50 nM
B5,binding result,[16],binds
GGGUACGAUCAACCAGGCGACAGUACCC (ssRNA) [BBS-II],binding result,[17],binds
